# Data taken from the supplement of paper PMC9112550, “Optimization of the antimicrobial peptide Bac7 by deep mutational scanning” (BMC Biology, 2022).
# Test system: Escherichia coli TOP10
# Test: shrunken log2 fold change of peptide-encoding DNA abundance (4.5 h post-induction vs induction); higher = less antimicrobial activity (less host growth inhibition)
# Details: time post-induction: 4.5 h; library: site-saturation at positions 5, 18, 19, 20
# 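Note: peptides expressed intracellularly from a pBAD plasmid library in pooled LB shake-flask culture, induced with 0.3% L-arabinose, DNA abundance read by NGS, three biological replicates, DESeq2 with apeglm shrinkage.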
row,Sequence,shrunken log2 fold change
1,RRIRQRPPRLPRPRPRPECHPRP,0.268
2,RRIRIRPPRLPRPRPRPKYQPRP,-0.615
3,RRIRARPPRLPRPRPRPCNVPRP,-0.0688
4,RRIRTRPPRLPRPRPRPYIPPRP,-0.462
5,RRIRWRPPRLPRPRPRPPGVPRP,0.525
6,RRIRYRPPRLPRPRPRPDRRPRP,-0.177
7,RRIRMRPPRLPRPRPRPCQLPRP,-0.00804
8,RRIRLRPPRLPRPRPRPNNIPRP,-0.559
9,RRIRCRPPRLPRPRPRPMIEPRP,-0.117
10,RRIRDRPPRLPRPRPRPFHMPRP,0.0426
11,RRIRARPPRLPRPRPRPDQLPRP,0.421
12,RRIRYRPPRLPRPRPRPRVPPRP,-0.0432
13,RRIRLRPPRLPRPRPRPGCNPRP,-0.162
14,RRIRRRPPRLPRPRPRPPIIPRP,0.164
15,RRIRTRPPRLPRPRPRPAEAPRP,0.148
16,RRIRLRPPRLPRPRPRPKENPRP,0.00493
17,RRIRNRPPRLPRPRPRPDQLPRP,0.0418
18,RRIRCRPPRLPRPRPRPFIHPRP,-1.43
19,RRIRTRPPRLPRPRPRPEPFPRP,0.0259
20,RRIRARPPRLPRPRPRPYVQPRP,-0.471
21,RRIRNRPPRLPRPRPRPYMCPRP,-0.18
22,RRIRVRPPRLPRPRPRPWQKPRP,0.015

row,Sequence,shrunken log2 fold change
1,RRIRNRPPRLPRPRPRPPRVPRP,0.379
2,RRIRKRPPRLPRPRPRPYNCPRP,0.00529
3,RRIRARPPRLPRPRPRPECRPRP,0.874
4,RRIRFRPPRLPRPRPRPFHKPRP,-1.02
5,RRIRSRPPRLPRPRPRPHFRPRP,-0.197
6,RRIRNRPPRLPRPRPRPVTGPRP,-0.362
7,RRIRLRPPRLPRPRPRPRKWPRP,0.184
8,RRIRIRPPRLPRPRPRPIEAPRP,-0.01
9,RRIRYRPPRLPRPRPRPYVPPRP,-0.77
10,RRIRGRPPRLPRPRPRPDNVPRP,-0.011
11,RRIRLRPPRLPRPRPRPEYPPRP,-0.336
12,RRIRDRPPRLPRPRPRPDQKPRP,-0.0052
13,RRIRHRPPRLPRPRPRPETVPRP,0.12
14,RRIRYRPPRLPRPRPRPVHQPRP,-0.0229
15,RRIRERPPRLPRPRPRPDSHPRP,-0.6
16,RRIRGRPPRLPRPRPRPNQRPRP,0.27
17,RRIRCRPPRLPRPRPRPDYSPRP,-0.179
18,RRIRFRPPRLPRPRPRPPGCPRP,0.453
19,RRIRLRPPRLPRPRPRPLQAPRP,0.128
20,RRIRIRPPRLPRPRPRPAAAPRP,0.286
21,RRIRPRPPRLPRPRPRPRPSPRP,0.333
22,RRIRKRPPRLPRPRPRPRIIPRP,0.081

row,Sequence,shrunken log2 fold change
1,RRIRTRPPRLPRPRPRPEKEPRP,0.0172
2,RRIRLRPPRLPRPRPRPQWLPRP,-0.141
3,RRIRWRPPRLPRPRPRPETRPRP,1.32
4,RRIRERPPRLPRPRPRPVEPPRP,0.0248
5,RRIRFRPPRLPRPRPRPLPLPRP,0.0222
6,RRIRTRPPRLPRPRPRPWVHPRP,-0.0467
7,RRIRDRPPRLPRPRPRPIVPPRP,-0.142
8,RRIRCRPPRLPRPRPRPCIFPRP,-0.396
9,RRIRCRPPRLPRPRPRPTTAPRP,0.166
10,RRIRRRPPRLPRPRPRPHNMPRP,-0.697
11,RRIRHRPPRLPRPRPRPIPYPRP,-0.3
12,RRIRIRPPRLPRPRPRPPYRPRP,-0.468
13,RRIRMRPPRLPRPRPRPAEMPRP,0.0981
14,RRIRKRPPRLPRPRPRPHEMPRP,0.0317
15,RRIRDRPPRLPRPRPRPLCIPRP,0.162
16,RRIRFRPPRLPRPRPRPDQMPRP,-0.155
17,RRIRHRPPRLPRPRPRPKMLPRP,-0.353
18,RRIRPRPPRLPRPRPRPPSGPRP,0.527
19,RRIRIRPPRLPRPRPRPRYMPRP,-0.114
20,RRIRHRPPRLPRPRPRPMMDPRP,-0.214
21,RRIRVRPPRLPRPRPRPLNHPRP,-0.17
22,RRIRPRPPRLPRPRPRPMKGPRP,0.15

row,Sequence,shrunken log2 fold change
1,RRIRKRPPRLPRPRPRPWHDPRP,-0.406
2,RRIRGRPPRLPRPRPRPPHRPRP,0.81
3,RRIRERPPRLPRPRPRPPSNPRP,-0.208
4,RRIRHRPPRLPRPRPRPKLLPRP,-0.0097
5,RRIRCRPPRLPRPRPRPINRPRP,0.0376
6,RRIRIRPPRLPRPRPRPGHSPRP,0.00697
7,RRIRIRPPRLPRPRPRPYIAPRP,-0.158
8,RRIRKRPPRLPRPRPRPQPKPRP,0.19
9,RRIRCRPPRLPRPRPRPLKSPRP,-0.154
10,RRIRKRPPRLPRPRPRPWIAPRP,0.285
11,RRIRDRPPRLPRPRPRPKPCPRP,0.0155
12,RRIRSRPPRLPRPRPRPFMGPRP,-0.216
13,RRIRCRPPRLPRPRPRPMGIPRP,0.00755
14,RRIRIRPPRLPRPRPRPSHCPRP,-0.505
15,RRIRKRPPRLPRPRPRPNHPPRP,0.0844
16,RRIRVRPPRLPRPRPRPRSSPRP,-0.244
17,RRIRIRPPRLPRPRPRPYVKPRP,-0.881
18,RRIRRRPPRLPRPRPRPYKPPRP,0.0267
19,RRIRHRPPRLPRPRPRPNKLPRP,-1.05
20,RRIRWRPPRLPRPRPRPKSKPRP,0.194
21,RRIRFRPPRLPRPRPRPTPLPRP,0.3
22,RRIRNRPPRLPRPRPRPAFQPRP,-0.0462

row,Sequence,shrunken log2 fold change
1,RRIRMRPPRLPRPRPRPVSVPRP,0.699
2,RRIRQRPPRLPRPRPRPHSRPRP,-0.17
3,RRIRKRPPRLPRPRPRPVRSPRP,2.24
4,RRIRGRPPRLPRPRPRPYTQPRP,-0.0862
5,RRIRVRPPRLPRPRPRPGWGPRP,0.621
6,RRIRIRPPRLPRPRPRPISMPRP,0.0215
7,RRIRFRPPRLPRPRPRPNIHPRP,-0.814
8,RRIRVRPPRLPRPRPRPELYPRP,0.0948
9,RRIRIRPPRLPRPRPRPLASPRP,0.0396
10,RRIRIRPPRLPRPRPRPPQGPRP,0.123
11,RRIRDRPPRLPRPRPRPWLVPRP,-0.117
12,RRIRLRPPRLPRPRPRPWDFPRP,-0.00136
13,RRIRSRPPRLPRPRPRPDVTPRP,-0.0165
14,RRIRYRPPRLPRPRPRPGQMPRP,-0.553
15,RRIRHRPPRLPRPRPRPYQIPRP,-0.484
16,RRIRTRPPRLPRPRPRPNQCPRP,0.00866
17,RRIRHRPPRLPRPRPRPCFGPRP,0.104
18,RRIRIRPPRLPRPRPRPMHIPRP,-0.417
19,RRIRLRPPRLPRPRPRPYKFPRP,-0.447
20,RRIRIRPPRLPRPRPRPHYRPRP,-0.204
21,RRIRMRPPRLPRPRPRPAYCPRP,0.075
